The values below come from patent US20210395393A1 (published 2021).

For experiment [1], the target named is T1, recombinant human tPA (rh-tPA: abcam ab92637) (UniProt P00750 36-562). Kind of experiment: ELISA; Plate 1, PBS, 4°C.
Experiment [2] deals with T1, recombinant human tPA (rh-tPA: abcam …). Kind of experiment: ELISA. (In general: In an ELISA, binding on a coated surface is turned into a signal by an enzyme label.)
Experiment [3] has the same target. Kind of experiment: ELISA; Plate 1, human serum, 37°C.
The target is the same in experiment [4]. Put plainly: ELISA. This is another data set of the same source.
Experiment [5] has the same target. Put plainly: ELISA; Plate 2, PBS, 4°C.
Experiment [6] shares this target. Kind of experiment: ELISA; Plate 2, cynomolgus serum, 37°C.
Experiment [7] shares this target. Kind of experiment: ELISA; Plate 2, mouse serum, 37°C.
Experiment [8] has the same target. Kind of experiment: ELISA; purified Fab.
For experiment [9] the target is unchanged. Kind of experiment: ELISA; Plate 1, PBS, 4°C. This is another data set of the same source.
For experiment [10] the target is unchanged. Put plainly: ELISA; Plate 2, mouse serum, 37°C. This is another data set of the same source.
Experiment [11] has the same target. Put plainly: ELISA; Plate 2, PBS, 4°C. The source holds these as a separate data set.
For experiment [12] the target is unchanged. Put plainly: ELISA; Plate 1, human serum, 37°C. This is another data set of the same source.
The target is the same in experiment [13]. Kind of experiment: ELISA; Plate 1, PBS, 37°C.
For experiment [14] the target is unchanged. Put plainly: ELISA; Plate 2, cynomolgus serum, 37°C. This is another data set of the same source.
For experiment [15] the target is unchanged. Put plainly: ELISA; Plate 1, human serum, 37°C. This is another data set of the same source.
Experiment [16] shares this target. Kind of experiment: ELISA; Plate 2, mouse serum, 37°C. The source holds these as a separate data set.
The target is the same in experiment [17]. Put plainly: ELISA; Plate 1, PBS, 37°C. This is another data set of the same source.
Experiment [18] shares this target. Kind of experiment: ELISA; Plate 1, PBS, 4°C. The source holds these as a separate data set.
Experiment [19] has the same target. Kind of experiment: ELISA; Plate 2, PBS, 4°C. The source holds these as a separate data set.

T1 sequence (P00750 36-562): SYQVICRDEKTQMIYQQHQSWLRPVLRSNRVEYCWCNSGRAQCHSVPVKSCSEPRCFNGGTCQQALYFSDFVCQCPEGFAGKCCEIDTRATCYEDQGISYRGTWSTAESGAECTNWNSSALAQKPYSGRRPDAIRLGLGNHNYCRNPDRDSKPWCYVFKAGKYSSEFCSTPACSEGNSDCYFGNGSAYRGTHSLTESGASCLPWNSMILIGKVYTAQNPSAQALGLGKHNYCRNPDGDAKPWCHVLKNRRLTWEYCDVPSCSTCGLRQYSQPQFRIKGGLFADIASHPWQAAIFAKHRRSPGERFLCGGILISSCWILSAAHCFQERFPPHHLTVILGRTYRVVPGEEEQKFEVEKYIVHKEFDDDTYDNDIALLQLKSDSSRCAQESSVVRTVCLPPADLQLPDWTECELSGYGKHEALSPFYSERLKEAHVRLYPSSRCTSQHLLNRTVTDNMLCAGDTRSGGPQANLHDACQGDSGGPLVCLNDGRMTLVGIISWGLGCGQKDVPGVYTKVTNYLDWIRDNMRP

B1: TPAi-1 RHP/RKA (antibody, V domains shown)
VH: QVQLVQSGAEVKKPGASVKVSCKASGNTSYWINWVRQATGQGLEWMGRIDPGGGSTGYAQKFQGRVTMTRDTSISTAYMELSSLRSEDTAVYYCASYYYAMAYWGQGTLVTVSS
VL: DVVMTQSPLSLPVTPGEPASISCRSSQSIVHSNGNTYLDWYLQKPGQSPQLLIYKVSNRASGVPDRFSGSGSGTDFTLKISRVEAEDVGVYYCFQGSHVPWTFGGGTKVEIK
A word on the EC50: it is the concentration at which the effect is half-maximal. By IC50 is commonly meant the concentration that gives 50% inhibition. Regarding B1, the EC50 in experiment [1] is 229 pM; in experiment [3] it was 404 pM; in [5] it was 304 pM; in experiment [6], 514 pM; in [7], 403 pM. In addition, the half-inhibitory concentration (IC50) in experiment [2] amounted to 316 pM; in experiment [4], 365 pM.

B2: TPAi-1 RHP/RKA Fab (Fab, V domains shown)
VH: QVQLVQSGAEVKKPGASVKVSCKASGNTSYWINWVRQATGQGLEWMGRIDPGGGSTGYAQKFQGRVTMTRDTSISTAYMELSSLRSEDTAVYYCASYYYAMAYWGQGTLVTVSS
VL: DVVMTQSPLSLPVTPGEPASISCRSSQSIVHSNGNTYLDWYLQKPGQSPQLLIYKVSNRASGVPDRFSGSGSGTDFTLKISRVEAEDVGVYYCFQGSHVPWTFGGGTKVEIK
For B2, the IC50 in experiment [8] amounted to 1620 pM. Besides, the EC50 in [9] worked out at 1450 pM; in [10] it was 966 pM; in experiment [11], 1750 pM; in experiment [12] it was 978 pM; in experiment [13], 2160 pM.

B3: TPAi-1 RHE/RKA (antibody, V domains shown)
VH: QVQLVQSGAEVKKPGASVKVSCKASGNTSYWINWVRQATGQGLEWMGRIDPGGGSTGYAQKFQGRVTMTRNTSISTAYMELSSLRSEDTAVYYCASYYYAMAYWGQGTLVTVSS
VL: DVVMTQSPLSLPVTPGEPASISCRSSQSIVHSNGNTYLDWYLQKPGQSPQLLIYKVSNRASGVPDRFSGSGSGTDFTLKISRVEAEDVGVYYCFQGSHVPWTFGGGTKVEIK
As for B3, the EC50 was found to be 717 pM in experiment [14]; 647 pM in experiment [15]; 694 pM in [16]; 972 pM in experiment [17]; 596 pM in experiment [18]; 510 pM in [19].
